In patent US20030144205A1:

Target: SV40 large T antigen (pGADT7-SV40 large T antigen) (SV40) (UniProt P03070)
Test: cell-based or functional assay

SV40 large T antigen (pGADT7-SV40 large T antigen) (SV40), sequence (P03070 86-708 limits assumed): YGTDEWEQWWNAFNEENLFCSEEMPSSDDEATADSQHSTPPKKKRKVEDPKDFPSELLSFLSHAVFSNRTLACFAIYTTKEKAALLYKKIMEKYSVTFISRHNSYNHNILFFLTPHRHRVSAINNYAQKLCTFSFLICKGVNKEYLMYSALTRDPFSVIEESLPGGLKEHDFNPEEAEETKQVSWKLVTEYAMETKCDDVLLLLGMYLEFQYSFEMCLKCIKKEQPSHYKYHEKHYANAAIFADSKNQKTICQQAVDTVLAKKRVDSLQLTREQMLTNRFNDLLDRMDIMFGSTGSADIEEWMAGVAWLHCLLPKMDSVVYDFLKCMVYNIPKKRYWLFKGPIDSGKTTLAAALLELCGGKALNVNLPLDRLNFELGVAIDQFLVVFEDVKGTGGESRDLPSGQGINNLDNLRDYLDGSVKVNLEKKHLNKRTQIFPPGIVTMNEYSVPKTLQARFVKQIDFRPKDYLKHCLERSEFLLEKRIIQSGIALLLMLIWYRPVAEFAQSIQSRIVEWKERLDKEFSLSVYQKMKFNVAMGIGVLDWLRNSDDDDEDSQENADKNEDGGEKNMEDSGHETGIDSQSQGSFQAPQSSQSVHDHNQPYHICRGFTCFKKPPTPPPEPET

Substance “murine p53 (pGBKT7-murine p53) (from UniProt P02340 72-390)” has a fold increase in fluorescence, an indication of yeast growth in selection media (Fluorescence(t40)/Fluorescence(t0)) greater than 5 fold.
